B1: NP_006221.1 (parent)
chain: CQPISFSGFGAEDDDLGGLGLGP
B2: CDKN1A (parent)
chain: RRQTSMTDFYHSKRRLIFSKRKP

Variants of: B1
Assay: protein stability index of a GFP-peptide fusion (GPS, HEK-293T) (PSI 1-6); higher = more stable
Settings: c terminus: native

Row | Variant | protein stability index
1 | CQPISFDGFGAEDDDLGGLGLGP [S7D] | 3.66
2 | CQPISFIGFGAEDDDLGGLGLGP [S7I] | 2.13
3 | CQPISFVGFGAEDDDLGGLGLGP [S7V] | 2.07
4 | CQPIKFSGFGAEDDDLGGLGLGP [S5K] | 2.39
5 | CQPIYFSGFGAEDDDLGGLGLGP [S5Y] | 2.25
6 | CQPITFSGFGAEDDDLGGLGLGP [S5T] | 2.41
7 | CQPIAFSGFGAEDDDLGGLGLGP [S5A] | 2.77
8 | CQPIDFSGFGAEDDDLGGLGLGP [S5D] | 2.69
9 | CQPINFSGFGAEDDDLGGLGLGP [S5N] | 2.4
10 | CQPIEFSGFGAEDDDLGGLGLGP [S5E] | 2.99
11 | CQPIRFSGFGAEDDDLGGLGLGP [S5R] | 2.14
12 | CQPIPFSGFGAEDDDLGGLGLGP [S5P] | 2.42
13 | CQPIQFSGFGAEDDDLGGLGLGP [S5Q] | 2.24
14 | CQPIWFSGFGAEDDDLGGLGLGP [S5W] | 2.58
15 | CQPIGFSGFGAEDDDLGGLGLGP [S5G] | 2.36
16 | CQPIHFSGFGAEDDDLGGLGLGP [S5H] | 2.42
17 | CQPIIFSGFGAEDDDLGGLGLGP [S5I] | 2.75
18 | CQPIFFSGFGAEDDDLGGLGLGP [S5F] | 2.29
19 | CQPIVFSGFGAEDDDLGGLGLGP [S5V] | 2.54
20 | CQPICFSGFGAEDDDLGGLGLGP [S5C] | 2.16
21 | CQPIMFSGFGAEDDDLGGLGLGP [S5M] | 2.46

Row | Variant | protein stability index
22 | CQPILFSGFGAEDDDLGGLGLGP [S5L] | 2.25
23 | LQPISFSGFGAEDDDLGGLGLGP [C1L] | 1.97
24 | DQPISFSGFGAEDDDLGGLGLGP [C1D] | 2.57
25 | PQPISFSGFGAEDDDLGGLGLGP [C1P] | 2.33
26 | WQPISFSGFGAEDDDLGGLGLGP [C1W] | 1.91
27 | SQPISFSGFGAEDDDLGGLGLGP [C1S] | 2.17
28 | TQPISFSGFGAEDDDLGGLGLGP [C1T] | 2.14
29 | YQPISFSGFGAEDDDLGGLGLGP [C1Y] | 2.18
30 | QQPISFSGFGAEDDDLGGLGLGP [C1Q] | 2.37
31 | RQPISFSGFGAEDDDLGGLGLGP [C1R] | 2.31
32 | AQPISFSGFGAEDDDLGGLGLGP [C1A] | 2.11
33 | HQPISFSGFGAEDDDLGGLGLGP [C1H] | 2.17
34 | FQPISFSGFGAEDDDLGGLGLGP [C1F] | 2.6
35 | NQPISFSGFGAEDDDLGGLGLGP [C1N] | 2.28
36 | GQPISFSGFGAEDDDLGGLGLGP [C1G] | 2.41
37 | MQPISFSGFGAEDDDLGGLGLGP [C1M] | 2.34
38 | IQPISFSGFGAEDDDLGGLGLGP [C1I] | 2.12
39 | KQPISFSGFGAEDDDLGGLGLGP [C1K] | 2.06
40 | EQPISFSGFGAEDDDLGGLGLGP [C1E] | 2.53
41 | VQPISFSGFGAEDDDLGGLGLGP [C1V] | 2.27

Variants of: B2
Assay: as above
Settings: c terminus: native

Row | Variant | protein stability index
42 | RRQTSMTDFYHSKRRLILSKRKP [F18L] | 1.65
43 | RRQTSMTDFYHSKRRLIESKRKP [F18E] | 3.49
44 | RRQTSMTDFYHSKRRLIDSKRKP [F18D] | 3.34
45 | RRQTSMFDFYHSKRRLIFSKRKP [T7F] | 2.06
46 | RRQTSMLDFYHSKRRLIFSKRKP [T7L] | 1.8
47 | RRQTSMQDFYHSKRRLIFSKRKP [T7Q] | 2.1
48 | RRQTSMTDFYHSKRRLIFSFRKP [K20F] | 2.31
49 | RRQTSMTDFYHSKRRLIFSRRKP [K20R] | 2.21
50 | RRQTSMTDFYHSKRRLIFSYRKP [K20Y] | 1.9
51 | RRQTSMTDFYHSKRRLIFQKRKP [S19Q] | 2.08
52 | RRQTSMTDFYHSKRRLIFKKRKP [S19K] | 1.91
53 | RRQTSMTDFYHSKRRLIFNKRKP [S19N] | 1.85
54 | RRQTSMTDFYHSKRRLIFAKRKP [S19A] | 2.87
55 | RRQTSMTDFYHSKRRLIFHKRKP [S19H] | 1.53
56 | RRQTSMTDFYHSKRRLIFTKRKP [S19T] | 1.77
57 | RRQTSMTDFYHSKRRLIFYKRKP [S19Y] | 2.84
58 | RRQTSMTDFYHSKRLLIFSKRKP [R15L] | 2.47
59 | RRQTSMTDFYHSKRRLIFSKCKP [R21C] | 3.54
60 | RRQTSMTDFYHSKRRLIFSKPKP [R21P] | 2.73

Row | Variant | protein stability index
61 | RRQTSMTDFYHSKRRLIFSKEKP [R21E] | 3.44
62 | RRQKSMTDFYHSKRRLIFSKRKP [T4K] | 2.26
63 | RRQVSMTDFYHSKRRLIFSKRKP [T4V] | 3.23
64 | RRQTSMTDFYHSKRRLEFSKRKP [I17E] | 3.68
65 | RRQTSMTDFYHSKRRLSFSKRKP [I17S] | 2.99
66 | RRQTLMTDFYHSKRRLIFSKRKP [S5L] | 2.69
67 | RRQTSMTDFYHSKRRMIFSKRKP [L16M] | 1.54
68 | FRQTSMTDFYHSKRRLIFSKRKP [R1F] | 3.44
69 | VRQTSMTDFYHSKRRLIFSKRKP [R1V] | 2.34
70 | IRQTSMTDFYHSKRRLIFSKRKP [R1I] | 1.98
71 | RRQTSMTDFYHIKRRLIFSKRKP [S12I] | 3.96
72 | RRQTSMTDFYHEKRRLIFSKRKP [S12E] | 2.92
73 | RRQTSDTDFYHSKRRLIFSKRKP [M6D] | 1.96
74 | RRQTSHTDFYHSKRRLIFSKRKP [M6H] | 2.36
75 | RRQTSLTDFYHSKRRLIFSKRKP [M6L] | 2.93
76 | RRRTSMTDFYHSKRRLIFSKRKP [Q3R] | 2.49
77 | RRQTSMTDFYHSKRRLIFSKRLP [K22L] | 1.74
78 | RRQTSMTDFYHSKRRLIFSKRIP [K22I] | 2.35
79 | RRQTSMTDFYHSKRRLIFSKRVP [K22V] | 3.36

Row | Variant | protein stability index
80 | RRQTSMTDFYHSKRRLIFSKRAP [K22A] | 1.72
81 | RRQTSMTDFYYSKRRLIFSKRKP [H11Y] | 1.66
82 | RRQTSMTDFYHSARRLIFSKRKP [K13A] | 3
83 | RRQTSMTDFYHSGRRLIFSKRKP [K13G] | 1.81
84 | RRQTSMTDFYHSDRRLIFSKRKP [K13D] | 2.39
85 | RRQTSMTDFYHSIRRLIFSKRKP [K13I] | 2.36
86 | RRQTSMTDFYHSFRRLIFSKRKP [K13F] | 2.44
87 | RRQTSMTDFYHSKDRLIFSKRKP [R14D] | 2.81
88 | RRQTSMTDFYHSKSRLIFSKRKP [R14S] | 1.83
89 | RRQTSMTDFYHSKCRLIFSKRKP [R14C] | 2.69
90 | RRQTSMTRFYHSKRRLIFSKRKP [D8R] | 1.14
91 | RRQTSMTLFYHSKRRLIFSKRKP [D8L] | 2.32
92 | RRQTSMTEFYHSKRRLIFSKRKP [D8E] | 3.76
93 | RRQTSMTYFYHSKRRLIFSKRKP [D8Y] | 1.55
94 | RRQTSMTPFYHSKRRLIFSKRKP [D8P] | 2.14
95 | RRQTSMTDTYHSKRRLIFSKRKP [F9T] | 2.25
96 | RSQTSMTDFYHSKRRLIFSKRKP [R2S] | 1.11
97 | RVQTSMTDFYHSKRRLIFSKRKP [R2V] | 2.74

Reference: the supplement of paper PMC10567573
